The chains are these.
B7: FabF (KASII family β-ketoacyl-ACP synthase), wild type (enzyme, E. coli)
chain: MSKRRVVVTGLGMLSPVGNTVESTWKALLAGQSGISLIDHFDTSAYATKFAGLVKDFNCEDIISRKEQRKMDAFIQYGIVAGVQAMQDSGLEITEENATRIGAAIGSGIGGLGLIEENHTSLMNGGPRKISPFFVPSTIVNMVAGHLTIMYGLRGPSISIATACTSGVHNIGHAARIIAYGDADVMVAGGAEKASTPLGVGGFGAARALSTRNDNPQAASRPWDKERDGFVLGDGAGMLVLEEYEHAKKRGAKIYAELVGFGMSSDAYHMTSPPENGAGAALAMANALRDAGIEASQIGYVNAHGTSTPAGDKAEAQAVKTIFGEAASRVLVSSTKSMTGHLLGAAGAVESIYSILALRDQAVPPTINLDNPDEGCDLDFVPHEARQVSGMEYTLCNSFGFGGTNGSLIFKKI
notes: FabF, elongating β-ketoacyl-ACP synthase (KASII family), E. coli; also called wt FabF; source: E. coli BL21, purified (Ni-NTA, thrombin cleavage, Superdex 200); not shown: His8, N-terminal, cleaved

Data set [1] has as its target B7. Nature of the data set: cross-linking; mechanism-based crosslinking, single time point: 40 μM crypto-AcpP, 20 μM FabF, 25 mM Tris, 150 mM NaCl, 10% glycerol, 0.5 mM TCEP, pH 7.4; SDS-PAGE densitometry; efficiency normalised to the average of wt FabF; n = 3. Particulars: both partners purified.
For data set [2], the target named is FabF F400A (gate removal mutant) (E. coli). The data set is described as above.
Data set [3] addresses FabF G402A (loop flexibility-modulated mutant) (E. coli). Described as above.
For data set [4], the target named is FabF D265N (loop 2 destabilization mutant) (E. coli). The description is as above.
In data set [5] the target is FabF G310F (pocket-blockage mutant) (E. coli). The data set is described as above.
Data set [6] deals with FabF G310M (pocket-blockage mutant) (E. coli). Described as above.
Data set [7] deals with FabF D265A (loop 2 destabilization mutant) (E. coli). The data set is described as above.
Data set [8] addresses B7. Kind of data set: crystal structure; AcpP covalently crosslinked through its pantetheineamide probe (Ser36) to Cys163 of the KS (crypto-AcpP:KS 5:1, 37 °C, 16 h; SEC in 20 mM Tris, 50 mM NaCl, pH 7.4); hanging drop, 6 °C, PEG 8K, 0.1 M sodium cacodylate pH 6.5. As to conditions: both partners purified.
Data set [9] deals with the molecule itself. The description is as above.

B1: C8Cl-AcpP (natural protein, E. coli)
chain: MSTIEERVKKIIGEQLGVKQEEVTNNASFVEDLGADSLDTVELVMALEEEFDTEIPDEEAEKITTVQAAIDYINGHQA
modifications: Ser36 carries a 4'-phosphopantetheineamide arm with the C8 chloroacrylate (chlorovinyl) probe
notes: acyl carrier protein AcpP, E. coli; also called C8Cl (2b); source: E. coli BL21 (DE3), purified; apofied with AcpH, loaded with the C8 chloroacrylate probe by the one-pot chemoenzymatic method, purified by SEC
In the case of B1, the binding result in [1] was “binds”. The crosslinking efficiency normalised to wt FabF in data set [2] worked out at 133%; in data set [3], 24%.

B2: C3Cl-AcpP (natural protein, E. coli)
chain: MSTIEERVKKIIGEQLGVKQEEVTNNASFVEDLGADSLDTVELVMALEEEFDTEIPDEEAEKITTVQAAIDYINGHQA
modifications: Ser36 carries a 4'-phosphopantetheineamide arm with the C3 chloroacrylate (chlorovinyl) probe
notes: acyl carrier protein AcpP, E. coli; also called C3Cl (2a); source: E. coli BL21 (DE3), purified; apofied with AcpH, loaded with the C3 chloroacrylate probe by the one-pot chemoenzymatic method, purified by SEC
As to B2, in data set [1], the binding result was “binds”. For the same molecule, the crosslinking efficiency normalised to wt FabF in data set [4] came out at 73%; in [5], 85%; in data set [3] it was 87%; in [6], 82%; in [7], 63%.

B3: crypto-1b-AcpP (C16AcpP) (natural protein, E. coli)
chain: MSTIEERVKKIIGEQLGVKQEEVTNNASFVEDLGADSLDTVELVMALEEEFDTEIPDEEAEKITTVQAAIDYINGHQA
modifications: Ser36 carries a 4'-phosphopantetheineamide arm with the C16 α-bromo acyl probe 1b
notes: acyl carrier protein AcpP, E. coli; Called 'native AcpP recombinant protein'; no tag is named; In the crosslinked complexes the α-carbon of the probe is bonded to Cys163 of the KS; source: E. coli BL21 (DE3), purified (isopropanol precipitation, HiTrap Q, Superdex 75); apofied with AcpH, loaded with probe 1b by the one-pot chemoenzymatic method, purified by SEC
With B3, the binding result in [8] is “binds”.

B4: crypto-1a-AcpP (C12AcpP) (natural protein, E. coli)
chain: MSTIEERVKKIIGEQLGVKQEEVTNNASFVEDLGADSLDTVELVMALEEEFDTEIPDEEAEKITTVQAAIDYINGHQA
modifications: Ser36 carries a 4'-phosphopantetheineamide arm with the C12 α-bromo acyl probe 1a
notes: acyl carrier protein AcpP, E. coli; Called 'native AcpP recombinant protein'; no tag is named; In the crosslinked complexes the α-carbon of the probe is bonded to Cys163 of the KS; also called C12αBr-AcpP; C12αBr (1a); source: E. coli BL21 (DE3), purified (isopropanol precipitation, HiTrap Q, Superdex 75); apofied with AcpH, loaded with probe 1a by the one-pot chemoenzymatic method, purified by …
As to B4, the binding result in data set [8] is “binds”. Besides, the crosslinking efficiency normalised to wt FabF in [4] stood at 64%; in data set [5], 33%; in [6], 30%; in data set [7] it was 51%.

B5: 1c-AcpP (C2αBr-AcpP) (natural protein, E. coli)
chain: MSTIEERVKKIIGEQLGVKQEEVTNNASFVEDLGADSLDTVELVMALEEEFDTEIPDEEAEKITTVQAAIDYINGHQA
modifications: Ser36 carries a 4'-phosphopantetheineamide arm with the C2 α-bromo probe 1c
notes: acyl carrier protein AcpP, E. coli; also called C2αBr (1c); crypto-1c-ACP; source: E. coli BL21 (DE3), purified; apofied with AcpH, loaded with probe 1c by the one-pot chemoenzymatic method, purified by SEC
For B5, the binding result in [1] is recorded as “binds”. In addition, the crosslinking efficiency normalised to wt FabF was found to be 77% in [4], 73% in data set [5], 70% in data set [6] and 72% in [7].

B6: FabB (KASI family β-ketoacyl-ACP synthase), wild type (enzyme, E. coli)
chain: MKRAVITGLGIVSSIGNNQQEVLASLREGRSGITFSQELKDSGMRSHVWGNVKLDTTGLIDRKVVRFMSDASIYAFLSMEQAIADAGLSPEAYQNNPRVGLIAGSGGGSPRFQVFGADAMRGPRGLKAVGPYVVTKAMASGVSACLATPFKIHGVNYSISSACATSAHCIGNAVEQIQLGKQDIVFAGGGEELCWEMACEFDAMGALSTKYNDTPEKASRTYDAHRDGFVIAGGGGMVVVEELEHALARGAHIYAEIVGYGATSDGADMVAPSGEGAVRCMKMAMHGVDTPIDYLNSHGTSTPVGDVKELAAIREVFGDKSPAISATKAMTGHSLGAAGVQEAIYSLLMLEHGFIAPSINIEELDEQAAGLNIVTETTDRELTTVMSNSFGFGGTNATLVMRKLKD
notes: FabB, elongating β-ketoacyl-ACP synthase (KASI family), E. coli; source: E. coli BL21, purified (Ni-NTA, thrombin cleavage, Superdex 200); not shown: His8, N-terminal, cleaved
For the molecule B6, the “stoichiometry N” value in data set [9] stood at 2.
Still for that read-out and setting: as for B7, the figure is 2.

For orientation: stoichiometry N means the number of molecules, sites or subunits per partner or assembly.

These data come from article PMC7138838, “Gating mechanism of elongating β-ketoacyl-ACP synthases” (Nature Communications, 2020).
